Article doi:10.1101/2024.06.19.598823 (bioRxiv, 2024)

Assays:
[1] = biological target: 6P stabilized SARS-CoV-2 S-ectodomain (prefusion-stabilized ancestral Wuhan spike ectodomain trimer) (SARS-CoV-2, ancestral Wuhan, stabilised); assay: cryo-EM structure
[2] = biological target: SARS-CoV-2 spike ectodomain, trimeric recombinant (SARS-CoV-2, ancestral (Wuhan) assumed, UniProt P0DTC2); assay: cell-based or functional assay

B1: nanobody 7F (VHH)
VHH: EVQLVESGGGLVEAGGSLRLSCVASGLTFSDYTMAWFRQVPGQEREFVSHIGWGGSETYYADSVKGRFTISRDNAKNAMYLQMNELKPDDTAVYYCAADRGSSFYYVRESEYTFWGQGTQVTVSS
stoichiometry N [1]: 6 7F molecules per two spike trimers | IC50 of neutralisation of VSV pseudotyped with SARS-CoV-2 spike on VeroE6 cells [2]: 0.0334 µM
